Reference: patent publication US20240270821A1, “GIP/GLP1/GCG TRI-RECEPTOR AGONISTS AND USES THEREOF” (priority 2023, published 2024)

Experiments:
Test in all cases: cell-based or functional assay
[1] = molecular target: human glucagon receptor (human) (UniProt P47871)
hGLP-1R = hGLP-1R (Homo sapiens, UniProt P43220)
[2] = molecular target: T1, human GIP receptor (human) (UniProt P48546)
T1 sequence (looked up): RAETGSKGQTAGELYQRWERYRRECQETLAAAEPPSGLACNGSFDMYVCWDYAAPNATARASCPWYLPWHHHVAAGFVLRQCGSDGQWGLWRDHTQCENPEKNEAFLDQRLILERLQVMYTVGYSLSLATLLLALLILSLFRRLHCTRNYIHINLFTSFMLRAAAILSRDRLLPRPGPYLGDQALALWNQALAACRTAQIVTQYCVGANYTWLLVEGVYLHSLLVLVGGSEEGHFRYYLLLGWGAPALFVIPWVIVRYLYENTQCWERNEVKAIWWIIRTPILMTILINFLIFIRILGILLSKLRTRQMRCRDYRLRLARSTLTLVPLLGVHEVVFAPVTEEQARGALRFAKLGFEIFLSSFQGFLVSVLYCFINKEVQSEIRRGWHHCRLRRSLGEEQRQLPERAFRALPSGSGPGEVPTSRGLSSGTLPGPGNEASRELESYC

Sequence of human glucagon receptor (human) (P47871 26-477): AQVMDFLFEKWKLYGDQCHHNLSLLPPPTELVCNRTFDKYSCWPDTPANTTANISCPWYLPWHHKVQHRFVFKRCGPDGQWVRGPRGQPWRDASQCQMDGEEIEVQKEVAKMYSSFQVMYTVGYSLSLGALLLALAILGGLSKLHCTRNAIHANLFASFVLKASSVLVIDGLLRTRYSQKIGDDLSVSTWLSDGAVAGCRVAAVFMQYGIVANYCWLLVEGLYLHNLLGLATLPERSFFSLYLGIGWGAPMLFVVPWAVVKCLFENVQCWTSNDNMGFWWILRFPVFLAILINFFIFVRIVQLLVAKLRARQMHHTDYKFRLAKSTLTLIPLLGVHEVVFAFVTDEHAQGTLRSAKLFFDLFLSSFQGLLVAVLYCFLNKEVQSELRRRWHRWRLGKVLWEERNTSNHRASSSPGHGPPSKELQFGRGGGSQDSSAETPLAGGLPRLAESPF
Sequence of hGLP-1R (P43220 24-463): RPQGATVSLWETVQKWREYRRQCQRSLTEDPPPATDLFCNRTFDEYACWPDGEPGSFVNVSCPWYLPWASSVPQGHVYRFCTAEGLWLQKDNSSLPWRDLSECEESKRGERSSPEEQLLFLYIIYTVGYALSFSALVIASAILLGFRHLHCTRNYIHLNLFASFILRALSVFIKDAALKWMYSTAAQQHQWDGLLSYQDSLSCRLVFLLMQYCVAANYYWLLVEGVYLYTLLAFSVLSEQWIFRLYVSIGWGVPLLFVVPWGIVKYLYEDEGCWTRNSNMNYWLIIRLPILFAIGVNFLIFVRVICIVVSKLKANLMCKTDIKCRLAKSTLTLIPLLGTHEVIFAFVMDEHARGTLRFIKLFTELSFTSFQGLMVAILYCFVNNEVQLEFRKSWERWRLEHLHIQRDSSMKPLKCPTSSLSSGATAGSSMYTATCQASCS

B1: Example 611 (peptide)
chain: YXQGTXTSDXSILLDKKAQXAFIEYLEEGGPSSGAPPPSGEEE
modifications: non-natural residues; Lys acylated C18 diacid; C-terminal amide; synthetic construct; SITE 2: note = 2-Aminoisobutyric Acid; SITE 6: note = alpha-methyl-2-fluoro-L-phenylalanine; SITE 10: note = 3-(4-Pyridyl)-L-alanine; SITE 17: note = Lysine is chemically modified through conjugation of the epsilon-amino group of the Lysine side chain with (gamma-Glu)2-CO-(CH2)1
B1 was tested, and the Relative cAMP EC50 [1] was 6.8 nM, the cAMP Rel EC50 (in the presence of 1% HSA) [1] was 627 nM and the Relative cAMP EC50 (hGLP-1R) was 1.63 nM. The cAMP Rel EC50 (in the presence of 1% HSA) (hGLP-1R) was 146 nM, the Relative cAMP EC50 [2] was 0.126 nM and the cAMP Rel EC50 (in the presence of 1% HSA) [2] was 7.35 nM.

B2: Example 621 (peptide)
chain: YXQGTXTSDXSILLDKKAQXAFIEYLEEGGPSSGAPPPSGEGE
modifications: non-natural residues, lysine acylation, C-terminal amide; synthetic construct; SITE 2: note = 2-Aminoisobutyric Acid; SITE 6: note = alpha-methyl-2-fluoro-L-phenylalanine; SITE 10: note = 3-(4-Pyridyl)-L-alanine; SITE 17: note = Lysine is chemically modified through conjugation of the epsilon-amino group of the Lysine side chain with (gamma-Glu)2-CO-(CH2)1
With B2 the Relative cAMP EC50 [1] was 6.81 nM, the cAMP Rel EC50 (in the presence of 1% HSA) [1] was 901 nM and the Relative cAMP EC50 (hGLP-1R) was 1.28 nM. The cAMP Rel EC50 (in the presence of 1% HSA) (hGLP-1R) was 111 nM, the Relative cAMP EC50 [2] was 0.0661 nM and the cAMP Rel EC50 (in the presence of 1% HSA) [2] was 7.31 nM.

B3: Example 620 (peptide)
chain: YXQGTXTSDXSILLDKKAQXAFIEYLEEGGPSSGAPPPSGAGE
modifications: Aib, αMeF(2F), 4Pal; acylated K; C-terminal amide; synthetic construct; SITE 2: note = 2-Aminoisobutyric Acid; SITE 6: note = alpha-methyl-2-fluoro-L-phenylalanine; SITE 10: note = 3-(4-Pyridyl)-L-alanine; SITE 17: note = Lysine is chemically modified through conjugation of the epsilon-amino group of the Lysine side chain with (gamma-Glu)2-CO-(CH2)1
Work on B3 yielded a Relative cAMP EC50 [1] of 8.26 nM, a cAMP Rel EC50 (in the presence of 1% HSA) [1] of 665 nM and a Relative cAMP EC50 (hGLP-1R) of 0.981 nM. It also gave a cAMP Rel EC50 (in the presence of 1% HSA) (hGLP-1R) of 90.7 nM, a Relative cAMP EC50 [2] of 0.0706 nM and a cAMP Rel EC50 (in the presence of 1% HSA) [2] of 5.96 nM.

B4: Example 631 (peptide)
chain: YXQGTXTSDXSIXLDKKAQXAFIEYLAEGGPSSGEPPPSGSEE
modifications: non-natural residues; acylated Lys; C-terminal amide; synthetic construct; SITE 2: note = 2-Aminoisobutyric Acid; SITE 6: note = alpha-methyl-2-fluoro-L-phenylalanine; SITE 10: note = 3-(4-Pyridyl)-L-alanine; SITE 13: note = alpha-methyl-leucine; SITE 17: note = Lysine is chemically modified through conjugation of the epsilon-amino group of the Lysine
Work on B4 yielded a Relative cAMP EC50 [1] of 16.8 nM, a cAMP Rel EC50 (in the presence of 1% HSA) [1] of 1250 nM and a Relative cAMP EC50 (hGLP-1R) of 0.658 nM. The cAMP Rel EC50 (in the presence of 1% HSA) (hGLP-1R) was 55 nM, the Relative cAMP EC50 [2] was 0.0375 nM and the cAMP Rel EC50 (in the presence of 1% HSA) [2] was 3.92 nM.

B5: Example 637 (peptide)
chain: YXQGTXTSDXSIXLDKKAQXXFIEYLSEGGPSSGEPPPSGSEE
modifications: Aib, αMeF(2F), 4Pal, Orn; acylated lysine; amide; synthetic construct; SITE 2: note = 2-Aminoisobutyric Acid; SITE 6: note = alpha-methyl-2-fluoro-L-phenylalanine; SITE 10: note = 3-(4-Pyridyl)-L-alanine; SITE 13: note = alpha-methyl-leucine; SITE 17: note = Lysine is chemically modified through conjugation of the epsilon-amino group of the Lysine
B5 was tested, and the Relative cAMP EC50 [1] was 11.7 nM, the cAMP Rel EC50 (in the presence of 1% HSA) [1] was 968 nM and the Relative cAMP EC50 (hGLP-1R) was 1.08 nM. It also gave a cAMP Rel EC50 (in the presence of 1% HSA) (hGLP-1R) of 76.2 nM, a Relative cAMP EC50 [2] of 0.108 nM and a cAMP Rel EC50 (in the presence of 1% HSA) [2] of 7.23 nM.

B6: Example 626 (peptide)
chain: YXQGTXTSDXSIXLDKKAQXAFIEYLEEGGPSSGAPPPEGTGE
modifications: non-natural residues, (γGlu)2-diacid acylated Lys, C-terminal amide; synthetic construct; SITE 2: note = 2-Aminoisobutyric Acid; SITE 6: note = alpha-methyl-2-fluoro-L-phenylalanine; SITE 10: note = 3-(4-Pyridyl)-L-alanine; SITE 13: note = alpha-methyl-leucine; SITE 17: note = Lysine is chemically modified through conjugation of the epsilon-amino group of the Lysine
With B6 the Relative cAMP EC50 [1] was 8.72 nM, the cAMP Rel EC50 (in the presence of 1% HSA) [1] was 546 nM and the Relative cAMP EC50 (hGLP-1R) was 0.889 nM. For the same binder, the cAMP Rel EC50 (in the presence of 1% HSA) (hGLP-1R) was 60.8 nM, the Relative cAMP EC50 [2] was 0.0192 nM and the cAMP Rel EC50 (in the presence of 1% HSA) [2] was 1.75 nM.

B7: Example 635 (peptide)
chain: YXQGTXTSDXSIXLDKKAQXXFIEYLEEGGPSSGEPPPSGSEE
modifications: non-natural residues; C18 diacid-(γ-Glu)2 acyl on Lys; C-terminal amide; synthetic construct; SITE 2: note = 2-Aminoisobutyric Acid; SITE 6: note = alpha-methyl-2-fluoro-L-phenylalanine; SITE 10: note = 3-(4-Pyridyl)-L-alanine; SITE 13: note = alpha-methyl-leucine; SITE 17: note = Lysine is chemically modified through conjugation of the epsilon-amino group of the Lysine
B7 was tested, and the Relative cAMP EC50 [1] was 7.09 nM, the cAMP Rel EC50 (in the presence of 1% HSA) [1] was 753 nM and the Relative cAMP EC50 (hGLP-1R) was 0.625 nM. For the same binder, the cAMP Rel EC50 (in the presence of 1% HSA) (hGLP-1R) was 53.9 nM, the Relative cAMP EC50 [2] was 0.0405 nM and the cAMP Rel EC50 (in the presence of 1% HSA) [2] was 2.7 nM.

B8: Example 628 (peptide)
chain: YXQGTXTSDXSIXLDKKAQXAFIEYLEEGGPSSGEPPPEGTGE
modifications: non-natural residues; lipidated Lys; C-terminal amide; synthetic construct; SITE 2: note = 2-Aminoisobutyric Acid; SITE 6: note = alpha-methyl-2-fluoro-L-phenylalanine; SITE 10: note = 3-(4-Pyridyl)-L-alanine; SITE 13: note = alpha-methyl-leucine; SITE 17: note = Lysine is chemically modified through conjugation of the epsilon-amino group of the Lysine
In the case of B8, the Relative cAMP EC50 [1] is reported as 7.47 nM, the cAMP Rel EC50 (in the presence of 1% HSA) [1] is reported as 651 nM and the Relative cAMP EC50 (hGLP-1R) is reported as 1.11 nM. It also gave a cAMP Rel EC50 (in the presence of 1% HSA) (hGLP-1R) of 79.8 nM, a Relative cAMP EC50 [2] of 0.0278 nM and a cAMP Rel EC50 (in the presence of 1% HSA) [2] of 1.87 nM.

B9: Example 622 (peptide)
chain: YXQGTXTSDXSIXLDKKAQXAFIEYLEEGGPSSGAPPPSGTGE
modifications: non-natural residues; (γGlu)2-C18 diacid acyl; C-terminal amide; synthetic construct; SITE 2: note = 2-Aminoisobutyric Acid; SITE 6: note = alpha-methyl-2-fluoro-L-phenylalanine; SITE 10: note = 3-(4-Pyridyl)-L-alanine; SITE 13: note = alpha-methyl-leucine; SITE 17: note = Lysine is chemically modified through conjugation of the epsilon-amino group of the Lysine
With B9 the Relative cAMP EC50 [1] was 7.7 nM, the cAMP Rel EC50 (in the presence of 1% HSA) [1] was 641 nM and the Relative cAMP EC50 (hGLP-1R) was 0.776 nM. The cAMP Rel EC50 (in the presence of 1% HSA) (hGLP-1R) was 52.3 nM, the Relative cAMP EC50 [2] was 0.0148 nM and the cAMP Rel EC50 (in the presence of 1% HSA) [2] was 1.19 nM.

B10: Example 636 (peptide)
chain: YXQGTXTSDXSIXLDKKAQXXFIEYLAEGGPSSGEPPPSGSEE
modifications: non-natural residues; C18 diacid-(γ-Glu)2 acyl on Lys; C-terminal amide; synthetic construct; SITE 2: note = 2-Aminoisobutyric Acid; SITE 6: note = alpha-methyl-2-fluoro-L-phenylalanine; SITE 10: note = 3-(4-Pyridyl)-L-alanine; SITE 13: note = alpha-methyl-leucine; SITE 17: note = Lysine is chemically modified through conjugation of the epsilon-amino group of the Lysine
Binder B10 has a Relative cAMP EC50 [1] of 9.28 nM, a cAMP Rel EC50 (in the presence of 1% HSA) [1] of 935 nM and a Relative cAMP EC50 (hGLP-1R) of 0.504 nM. The cAMP Rel EC50 (in the presence of 1% HSA) (hGLP-1R) was 36.6 nM, the Relative cAMP EC50 [2] was 0.054 nM and the cAMP Rel EC50 (in the presence of 1% HSA) [2] was 4.3 nM.

B11: Example 624 (peptide)
chain: YXQGTXTSDXSIXLDKKAQXAFIEYLEEGGPSSGEPPPSGTGE
modifications: non-natural residues; lipidated Lys; C-terminal amide; synthetic construct; SITE 2: note = 2-Aminoisobutyric Acid; SITE 6: note = alpha-methyl-2-fluoro-L-phenylalanine; SITE 10: note = 3-(4-Pyridyl)-L-alanine; SITE 13: note = alpha-methyl-leucine; SITE 17: note = Lysine is chemically modified through conjugation of the epsilon-amino group of the Lysine
Work on B11 yielded a Relative cAMP EC50 [1] of 8.42 nM, a cAMP Rel EC50 (in the presence of 1% HSA) [1] of 808 nM and a Relative cAMP EC50 (hGLP-1R) of 0.95 nM. It also gave a cAMP Rel EC50 (in the presence of 1% HSA) (hGLP-1R) of 63.4 nM, a Relative cAMP EC50 [2] of 0.0222 nM and a cAMP Rel EC50 (in the presence of 1% HSA) [2] of 1.17 nM.

B12: Example 633 (peptide)
chain: YXQGTXTSDXSIXLDKKAQXAFIEYLTEGGPSSGEPPPSGSEE
modifications: non-natural residues, C18 diacid acylation, C-terminal amide; synthetic construct; SITE 2: note = 2-Aminoisobutyric Acid; SITE 6: note = alpha-methyl-2-fluoro-L-phenylalanine; SITE 10: note = 3-(4-Pyridyl)-L-alanine; SITE 13: note = alpha-methyl-leucine; SITE 17: note = Lysine is chemically modified through conjugation of the epsilon-amino group of the Lysine
B12 gave a Relative cAMP EC50 [1] of 10.2 nM, a cAMP Rel EC50 (in the presence of 1% HSA) [1] of 1500 nM and a Relative cAMP EC50 (hGLP-1R) of 0.421 nM. It also gave a cAMP Rel EC50 (in the presence of 1% HSA) (hGLP-1R) of 41.2 nM, a Relative cAMP EC50 [2] of 0.0186 nM and a cAMP Rel EC50 (in the presence of 1% HSA) [2] of 1.63 nM.

B13: Example 634 (peptide)
chain: YXQGTXTSDXSIXLDKKAQXAFIEYLQEGGPSSGEPPPSGSEE
modifications: (γGlu)2-C18 diacid on Lys; non-natural residues; amide; synthetic construct; SITE 2: note = 2-Aminoisobutyric Acid; SITE 6: note = alpha-methyl-2-fluoro-L-phenylalanine; SITE 10: note = 3-(4-Pyridyl)-L-alanine; SITE 13: note = alpha-methyl-leucine; SITE 17: note = Lysine is chemically modified through conjugation of the epsilon-amino group of the Lysine
With B13 the Relative cAMP EC50 [1] was 6.49 nM, the cAMP Rel EC50 (in the presence of 1% HSA) [1] was 979 nM and the Relative cAMP EC50 (hGLP-1R) was 0.403 nM. For the same binder, the cAMP Rel EC50 (in the presence of 1% HSA) (hGLP-1R) was 34.9 nM, the Relative cAMP EC50 [2] was 0.0195 nM and the cAMP Rel EC50 (in the presence of 1% HSA) [2] was 1.48 nM.
